One data set deals with T1, NoMnmE (Nostoc sp. PCC 7120 = FACHB-418, UniProt Q8YN91).
T1 construct: gene mnmE; full length, N-terminal His-tag (pET14b, E. coli BL21-DE3) cut by thrombin; homodimer
T1 sequence (Q8YN91 1-459): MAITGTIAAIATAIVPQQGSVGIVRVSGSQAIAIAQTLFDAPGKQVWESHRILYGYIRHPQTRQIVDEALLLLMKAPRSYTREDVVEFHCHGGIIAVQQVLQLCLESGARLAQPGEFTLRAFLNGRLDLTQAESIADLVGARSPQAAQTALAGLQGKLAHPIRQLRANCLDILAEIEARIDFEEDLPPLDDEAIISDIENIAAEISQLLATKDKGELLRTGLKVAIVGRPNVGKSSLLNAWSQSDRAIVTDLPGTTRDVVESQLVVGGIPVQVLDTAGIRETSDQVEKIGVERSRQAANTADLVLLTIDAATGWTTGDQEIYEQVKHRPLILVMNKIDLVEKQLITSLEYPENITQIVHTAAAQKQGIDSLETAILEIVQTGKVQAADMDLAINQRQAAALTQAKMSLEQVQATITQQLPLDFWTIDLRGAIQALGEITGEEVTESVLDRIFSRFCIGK
Description: X-ray crystal structure. It counts as binding. The note with it: copurified from E. coli; two sites in N-terminal domain dimer interface; GDP also bound.

For another data set, the target named is T2, CtMnmE (Chlorobaculum tepidum, UniProt Q8KAS1).
T2 construct: gene mnmE; full length, N-terminal His-tag (pET14b, E. coli BL21-DE3) cut by thrombin; homodimer
T2 sequence (Q8KAS1 1-473): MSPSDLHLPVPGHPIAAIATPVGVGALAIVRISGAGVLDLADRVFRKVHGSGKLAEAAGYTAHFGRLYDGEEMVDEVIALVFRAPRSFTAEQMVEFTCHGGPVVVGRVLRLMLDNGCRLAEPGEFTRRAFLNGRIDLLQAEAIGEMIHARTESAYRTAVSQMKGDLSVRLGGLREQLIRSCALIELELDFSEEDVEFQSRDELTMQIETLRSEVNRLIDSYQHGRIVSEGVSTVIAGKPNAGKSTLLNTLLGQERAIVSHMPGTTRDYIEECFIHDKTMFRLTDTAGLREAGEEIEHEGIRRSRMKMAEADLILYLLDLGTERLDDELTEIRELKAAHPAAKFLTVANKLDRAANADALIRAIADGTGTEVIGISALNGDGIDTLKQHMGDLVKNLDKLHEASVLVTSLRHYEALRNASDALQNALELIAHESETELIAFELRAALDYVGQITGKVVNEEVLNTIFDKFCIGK
Description: X-ray crystal structure (soak). It counts as binding. The note with it: 5 mM 5-F-THF in cryoprotectant; N-terminal domain dimer interface; GDP also bound.

Data set [1] deals with the molecule itself. Description: pulse EPR (four-pulse DEER) of spin-labelled protein; 200–500 µM MTSSL-labelled protein in 100 mM KCl (or NaCl, RbCl, CsCl, NH4Cl), 50 mM Tris-HCl, 5 mM MgCl2 pH 7.4; apo, 1 mM GDP, 1 mM GppNHp or GDP-AlFx; measured at 50 K; distances between the two symmetry-related labels of the dimer.
Data set [2] concerns the molecule itself. Put plainly: crystal structure; full-length MnmE crystallised with K+, GDP and AlFx (only GDP found bound); hanging-drop vapour diffusion; homodimer by crystallographic symmetry.

Consider `Nc1nc2c(c(=O)[nH]1)N(C=O)[C@@H](CNc1ccc(C(=O)N[C@@H](CCC(=O)O)C(=O)O)cc1)CN2` [5-F-THF, 5-formyl-tetrahydrofolate], for which the X-ray crystal structure entry at NoMnmE was “two molecules of 5-formyl-tetrahydrofolate (5-F-THF) were identified in the structure of NoMnmE·GDP”. In addition, at CtMnmE, the “X-ray crystal structure (soak)” value is reported as “in the crystal structure 5-F-THF is found in identical positions as in the NoMnmE·GDP-dimer”.

B1: E. coli MnmE-C451S E287R1 (Glu287 mutated to Cys, MTSSL-labelled) (natural protein, UniProt P25522 1-454, looked up)
chain: MSDNDTIVAQATPPGRGGVGILRISGFKAREVAETVLGKLPKPRYADYLPFKDADGSVLDQGIALWFPGPNSFTGEDVLELQGHGGPVILDLLLKRILTIPGLRIARPGEFSERAFLNDKLDLAQAEAIADLIDASSEQAARSALNSLQGAFSARVNHLVEALTHLRIYVEAAIDFPDEEIDFLSDGKIEAQLNDVIADLDAVRAEARQGSLLREGMKVVIAGRPNAGKSSLLNALAGREAAIVTDIAGTTRDVLREHIHIDGMPLHIIDTAGLREASDEVERIGICRAWQEIEQADRVLFMVDGTTTDAVDPAEIWPEFIARLPAKLPITVVRNKADITGETLGMSEVNGHALIRLSARTGEGVDVLRNHLKQSMGFDTNMEGGFLARRRHLQALEQAAEHLQQGKAQLLGAWAGELLAEELRLAQQNLSEITGEFTSDDLLGRIFSSFSIGK
modifications: MTSSL spin label (R1 side chain) on the cysteine at 287
notes: MnmE of E. coli, full length, Cys mutant in the C451S background; also called EcMnmE E287R1; source: purified, nucleotide-free
B1: in data set [1], the binding result is listed as “binds”.

B2: E. coli MnmE-C451S S278R1 (Ser278 mutated to Cys, MTSSL-labelled) (natural protein, UniProt P25522 1-454, looked up)
chain: MSDNDTIVAQATPPGRGGVGILRISGFKAREVAETVLGKLPKPRYADYLPFKDADGSVLDQGIALWFPGPNSFTGEDVLELQGHGGPVILDLLLKRILTIPGLRIARPGEFSERAFLNDKLDLAQAEAIADLIDASSEQAARSALNSLQGAFSARVNHLVEALTHLRIYVEAAIDFPDEEIDFLSDGKIEAQLNDVIADLDAVRAEARQGSLLREGMKVVIAGRPNAGKSSLLNALAGREAAIVTDIAGTTRDVLREHIHIDGMPLHIIDTAGLREACDEVERIGIERAWQEIEQADRVLFMVDGTTTDAVDPAEIWPEFIARLPAKLPITVVRNKADITGETLGMSEVNGHALIRLSARTGEGVDVLRNHLKQSMGFDTNMEGGFLARRRHLQALEQAAEHLQQGKAQLLGAWAGELLAEELRLAQQNLSEITGEFTSDDLLGRIFSSFSIGK
modifications: MTSSL spin label (R1 side chain) on the cysteine at 278
notes: MnmE of E. coli, full length, Cys mutant in the C451S background; source: purified, nucleotide-free
Regarding B2, the binding result in data set [1] is listed as “binds”.

B3: E. coli MnmE-C451S D366R1 (Asp366 mutated to Cys, MTSSL-labelled) (natural protein, UniProt P25522 1-454, looked up)
chain: MSDNDTIVAQATPPGRGGVGILRISGFKAREVAETVLGKLPKPRYADYLPFKDADGSVLDQGIALWFPGPNSFTGEDVLELQGHGGPVILDLLLKRILTIPGLRIARPGEFSERAFLNDKLDLAQAEAIADLIDASSEQAARSALNSLQGAFSARVNHLVEALTHLRIYVEAAIDFPDEEIDFLSDGKIEAQLNDVIADLDAVRAEARQGSLLREGMKVVIAGRPNAGKSSLLNALAGREAAIVTDIAGTTRDVLREHIHIDGMPLHIIDTAGLREASDEVERIGIERAWQEIEQADRVLFMVDGTTTDAVDPAEIWPEFIARLPAKLPITVVRNKADITGETLGMSEVNGHALIRLSARTGEGVCVLRNHLKQSMGFDTNMEGGFLARRRHLQALEQAAEHLQQGKAQLLGAWAGELLAEELRLAQQNLSEITGEFTSDDLLGRIFSSFSIGK
modifications: MTSSL spin label (R1 side chain) on the cysteine at 366
notes: as for B2
Consider B3, for which, in data set [1], the binding result is “binds”.

B4: E. coli MnmE-C451S I105R1 (Ile105 mutated to Cys, MTSSL-labelled) (natural protein, UniProt P25522 1-454, looked up)
chain: MSDNDTIVAQATPPGRGGVGILRISGFKAREVAETVLGKLPKPRYADYLPFKDADGSVLDQGIALWFPGPNSFTGEDVLELQGHGGPVILDLLLKRILTIPGLRCARPGEFSERAFLNDKLDLAQAEAIADLIDASSEQAARSALNSLQGAFSARVNHLVEALTHLRIYVEAAIDFPDEEIDFLSDGKIEAQLNDVIADLDAVRAEARQGSLLREGMKVVIAGRPNAGKSSLLNALAGREAAIVTDIAGTTRDVLREHIHIDGMPLHIIDTAGLREASDEVERIGIERAWQEIEQADRVLFMVDGTTTDAVDPAEIWPEFIARLPAKLPITVVRNKADITGETLGMSEVNGHALIRLSARTGEGVDVLRNHLKQSMGFDTNMEGGFLARRRHLQALEQAAEHLQQGKAQLLGAWAGELLAEELRLAQQNLSEITGEFTSDDLLGRIFSSFSIGK
modifications: MTSSL spin label (R1 side chain) on the cysteine at 105
notes: as for B2
Turning to B4, the binding result in data set [1] was “binds”.

B5: Nostoc sp. 7120 MnmE (natural protein, UniProt Q8YN91 1-459, looked up)
chain: MAITGTIAAIATAIVPQQGSVGIVRVSGSQAIAIAQTLFDAPGKQVWESHRILYGYIRHPQTRQIVDEALLLLMKAPRSYTREDVVEFHCHGGIIAVQQVLQLCLESGARLAQPGEFTLRAFLNGRLDLTQAESIADLVGARSPQAAQTALAGLQGKLAHPIRQLRANCLDILAEIEARIDFEEDLPPLDDEAIISDIENIAAEISQLLATKDKGELLRTGLKVAIVGRPNVGKSSLLNAWSQSDRAIVTDLPGTTRDVVESQLVVGGIPVQVLDTAGIRETSDQVEKIGVERSRQAANTADLVLLTIDAATGWTTGDQEIYEQVKHRPLILVMNKIDLVEKQLITSLEYPENITQIVHTAAAQKQGIDSLETAILEIVQTGKVQAADMDLAINQRQAAALTQAKMSLEQVQATITQQLPLDFWTIDLRGAIQALGEITGEEVTESVLDRIFSRFCIGK
notes: MnmE of Nostoc sp; 7120, full-length protomer, cloned into pET14b; Crystallised with GDP (grown with GDP-AlFx and K+); 5-formyl-tetrahydrofolate was co-purified; also called NoMnmE; NoMnmE·GDP; source: E. coli BL21-DE3, purified (Ni-NTA, thrombin cleavage of the His-tag, gel filtration on Superdex 200); not shown: His tag, N-terminal, cleaved
For B5, the binding result in data set [2] was “binds”.

B6: Chlorobium tepidum MnmE (natural protein, UniProt Q8KAS1 1-473, looked up)
chain: MSPSDLHLPVPGHPIAAIATPVGVGALAIVRISGAGVLDLADRVFRKVHGSGKLAEAAGYTAHFGRLYDGEEMVDEVIALVFRAPRSFTAEQMVEFTCHGGPVVVGRVLRLMLDNGCRLAEPGEFTRRAFLNGRIDLLQAEAIGEMIHARTESAYRTAVSQMKGDLSVRLGGLREQLIRSCALIELELDFSEEDVEFQSRDELTMQIETLRSEVNRLIDSYQHGRIVSEGVSTVIAGKPNAGKSTLLNTLLGQERAIVSHMPGTTRDYIEECFIHDKTMFRLTDTAGLREAGEEIEHEGIRRSRMKMAEADLILYLLDLGTERLDDELTEIRELKAAHPAAKFLTVANKLDRAANADALIRAIADGTGTEVIGISALNGDGIDTLKQHMGDLVKNLDKLHEASVLVTSLRHYEALRNASDALQNALELIAHESETELIAFELRAALDYVGQITGKVVNEEVLNTIFDKFCIGK
notes: MnmE of Chlorobium tepidum, full-length protomer, cloned into pET14b; Crystallised with GDP (grown with GDP-AlFx and K+) and with GppCp; homodimer through the N-terminal domains; also called CtMnmE; CtMnmE·GDP; source: E. coli BL21-DE3, purified (Ni-NTA, thrombin cleavage of the His-tag, gel filtration on Superdex 200); not shown: His tag, N-terminal, cleaved
On to B6, for which the binding result in data set [2] is listed as “binds”.

Source of the values: paper PMC2749940, “Kissing G Domains of MnmE Monitored by X-Ray Crystallography and Pulse Electron Paramagnetic Resonance Spectroscopy” (PLoS Biology, 2009).
